Test results from patent US20260078416A1, “ORTHOGONAL METABOLIC FRAMEWORK FOR ONE-CARBON UTILIZATION” (Mojia Biotech Pte. Ltd., priority 2021, published 2026).

Legend:
[1] = In vitro condensation of methyl ketones with formyl-CoA using purified enzymes; type: biochemical; details: 100 mM methyl ketone, 20 mM formate, 30° C., 24 hours, GC-MS
Protocol: The formyl-CoA generation catalyzed by CoA transferase CaAbfT and condensation catalyzed by HACS JGI15 is identical to the examples described above (FIG. 38A).
The enzymes CoA transferase CaAbfT and HACS JG115 were overexpressed and purified as described above. In vitro purified enzyme reactions for condensation of methyl ketone and formyl-CoA were comprised of 100 mM KPi pH 6.9, 10 mM MgCl2, 0.15 mM TPP, 2 mM acetyl-CoA, 1 μM JGI15, 2 μM CaAbfT, 20 mM formate and 100 mM tested methyl ketones. Reactions were incubated at 30° C. for 24 hours unless otherwise specified.
For this analysis, samples containing acyl-CoAs were first treated with 1/20 of the reaction volume of 10 M NaOH solution was added to terminate the reactions. After 30 min hydrolysis, 1/20 of the reaction volume of 10 N H2SO4 was added to improve the efficiency of acid extraction. The resulting sample was extracted into 4 mL ethyl acetate by vigorous vortexing for 90 seconds. The organic phase was separated and evaporated to dryness under a stream of nitrogen. […] Samples were analyzed by GC (1 μL injection with a 20:1 split ratio) using helium as the carrier gas at a flowrate of 1.5 mL/min and the following temperature profile: initial 90° C. for 3 min; ramp at 15° C./min to 170° C.; ramp at 20° C./min to 300° C. and hold for 8 min. […]

[2] = In vitro kinetic assay of purified HACS variants; substrate acetone; type: biochemical
Protocol: The kinetic assay was performed with a coupled reaction providing formyl-CoA from formate catalyzed by CoA transferase CaAbfT using acetyl-CoA as a CoA donor.
In vitro kinetic assay was comprised of 100 mM KPi pH 6.9, 10 mM MgCl2, 0.15 mM TPP, 2 mM acetyl-CoA, 1 μM CaAbfT, 0.25 μM HACS variants, and 20 mM sodium formate. Reactions were incubated at room temperature for 3 min to convert formate to formyl-CoA, and then specific concentration of aldehyde (specifically acetaldehyde or propionaldehyde here) was added to the reaction. After incubating another 3 min, 1/20 of the reaction volume of 10 M NaOH solution was added to terminate the reactions. After 30 min hydrolysis, 1/20 of the reaction volume of 10 N H2SO4 was added to neutralize the pH. Samples were centrifuged at 20817×g for 15 minutes and the supernatant analyzed by GC-MS as described below.
For this analysis, 0.15 of the reaction volume of internal standard methyl succinate was added to the samples. The resulting sample was extracted into 4 mL ethyl acetate by vigorous vortexing for 20 min. […] Samples were analyzed by GC (1 μL injection with a 20:1 split ratio) using helium as the carrier gas at a flowrate of 1.5 mL/min and the following temperature profile: initial 90° C. for 3 min; ramp at 15° C./min to 170° C.; ramp at 20° C./min to 300° C. and hold for 8 min. […]

B1: JGI15: HACS variant; GenBank HAK63664.1 (protein)
chain: MAKSEGKVNGATLMARALQQQGVQYMFGIVGFPVIPIAIAAQREGITYIGMRNEQSASYAAQAASYLTGRPQACLVVSGPGVVHALAGLANAQVNCWPMLLIGGASAIEQNGMGAFQEERQVLLASPLCKYAHQVERPERIPYYVEQAVRSALFGRPGAAYLDMPDDVILGEVEEAAVRPAATVGEPPRSLAPQENIEAALDALQSAKRPLVIVGKGMAWSRAENEVRQFIERTRLPFLATPMGKGVMPDDHPLSVGGARSHALQEADLVFLLGARFNWILHFGLPPRYSKDVRVIQLDLSAEEIGNNRQAEVALVGDGKAIVGQLNQALSSRQWFYPAETPWREAIAAKIAGNQAAVAPMIADNTSPMNYYRVYRDIAARLPRNAIIVGEGANTMDIGRTQMPNFEPRSRLDAGSYGTMGIGLGFAVAAAAVHPGRPVIAVQGDSAFGFSGMEFETAARYGMPIKVIILNNGGIGMGSPAPRDGQPGMPHALSHDARYERIAEAFGGAGFYVTDSAELGPALDAAMAFKGPAIVNIKIAATADRKPQQFNWHG
- condensation of methyl ketones with formyl-CoA [1]: could catalyze the condensation of tested ketones
- Kcat, app [2]: 6.8 s⁻¹
